Tests used:
[1] = molecular target: wild type (WT) AcrB (E. coli) (UniProt P31224); experiment: native gel or EMSA; blue native (BN)-PAGE of freshly purified protein, 4–20% gradient gel, no DTT
[2] = molecular target: CLAcrB_(P223G/V225C/A777C) (E. coli) (UniProt P31224); experiment: as above
[3] = molecular target: CLAcrB_(P223G/V225C/A777C) (E. coli) (UniProt P31224); experiment: cross-linking; inter-subunit disulfide trapping (C225–C777) in vivo: membrane vesicles from BW25113ΔacrB extracted in the presence of IAM, SDS-PAGE without DTT, Western blot with anti-AcrB

Substance	stoichiometry N [1]	stoichiometry N [2]	stoichiometry N [3]
wild type (WT) AcrB (from UniProt P31224 1-1049) (natural protein)	3		
CLAcrB_(P223G/V225C/A777C) (from UniProt P31224 1-1049) (natural protein)		3	3

Reference: publication PMC3230630
